# In publication PMC9360328, “Tenuous Transcriptional Threshold of Human Sex Determination. I. SRY and Swyer Syndrome at the Edge of Ambiguity”:
# B1: 15-bp consensus SRY site, FRET-labeled (dsDNA)
# DNA 1: TCGGTGATTGTTCAG
# DNA 2: CTGAACAATCACCGA
# Target: SRY HMG box WT (Homo sapiens, UniProt Q05066 56-141)
# Test: FRET titration; 15 C, 25 nM DNA; FRET titration: 10 mM potassium phosphate, 10 mM Tris-HCl, 140 mM KCl, 1 mM EDTA, 1 mM DTT, pH 8.4, 15 C, 25 nM DNA; PGE: 10 nM DNA, 20 nM protein, 0.5x TBE, 4
# Conditions: protein: recombinant; label: 5'-6-FAM (hexanyl linker) on upper strand; 5'-TAMRA (hexanyl linker) on lower strand; blunt
# SRY HMG box WT, sequence (Q05066 56-141): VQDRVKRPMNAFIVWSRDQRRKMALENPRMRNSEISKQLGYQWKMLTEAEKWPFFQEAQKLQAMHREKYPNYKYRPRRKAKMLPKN
binder,measurement,value
B1,Kd,10 ± 3 nM
